Test results: doi:10.1101/258020 (bioRxiv, 2018)

Key:
[1] = target: T1, TMR-phalloidin-labelled biotinylated actin filaments (Cytoskeleton) (UniProt P68135 1-377, biotin (~1 biotin per monomer)); assay: optical trap
[2] = target: T1, TMR-phalloidin-labelled biotinylated …; assay: optical trap; remark: listed apart in the source

k0 (detachment rate from actin at zero load) with F3345 [1]	k0 (detachment rate from actin at zero load) [2]	Binder
36 s⁻¹	–	human β-cardiac myosin subfragment-1 (short S1, sS1 (complex) chain 1: MGDSEMAVFGAAAPYLRKSEKERLEAQTRPFDLKKDVFVPDDKQEFVKAKIVSREGGKVTAETEYGKTVTVKEDQVMQQNPPKFDKIEDMAMLTFLHEPAVLYNLKDRYGSWMIYTYSGLFCVTVNPYKWLPVYTPEVVAAYRGKKRSEAPPHIFSISDNAYQYMLTDRENQSILITGESGAGKTVNTKRVIQYFAVIAAIGDRSKKDQSPGKGTLEDQIIQANPALEAFGNAKTVRNDNSSRFGKFIRIHFGATGKLASADIETYLLEKSRVIFQLKAERDYHIFYQILSNKKPELLDMLLITNNPYDYAFISQGETTVASIDDAEELMATDNAFDVLGFTSEEKNSMYKLTGAIMHFGNMKFKLKQREEQAEPDGTEEADKSAYLMGLNSADLLKGLCHPRVKVGNEYVTKGQNVQQVIYATGALAKAVYERMFNWMVTRINATLETKQPRQYFIGVLDIAGFEIFDFNSFEQLCINFTNEKLQQFFNHHMFVLEQEEYKKEGIEWTFIDFGMDLQACIDLIEKPMGIMSILEEECMFPKATDMTFKAKLFDNHLGKSANFQKPRNIKGKPEAHFSLIHYAGIVDYNIIGWLQKNKDPLNETVVGLYQKSSLKLLSTLFANYAGADAPIEKGKGKAKKGSSFQTVSALHRENLNKLMTNLRSTHPHFVRCIIPNETKSPGVMDNPLVMHQLRCNGVLEGIRICRKGFPNRILYGDFRQRYRILNPAAIPEGQFIDSRKGAEKLLSSLDIDHNQYKFGHTKVFFKAGLLGLLEEMRDERLSRIITRIQAQSRGVLARMEYKKLLERR chain 2: not shown
–	155 s⁻¹	human β-cardiac myosin sS1-eGFP (MYH7 1-808) R237W with essential light chain (complex) chain 1: MGDSEMAVFGAAAPYLRKSEKERLEAQTRPFDLKKDVFVPDDKQEFVKAKIVSREGGKVTAETEYGKTVTVKEDQVMQQNPPKFDKIEDMAMLTFLHEPAVLYNLKDRYGSWMIYTYSGLFCVTVNPYKWLPVYTPEVVAAYRGKKRSEAPPHIFSISDNAYQYMLTDRENQSILITGESGAGKTVNTKRVIQYFAVIAAIGDRSKKDQSPGKGTLEDQIIQANPALEAFGNAKTVWNDNSSRFGKFIRIHFGATGKLASADIETYLLEKSRVIFQLKAERDYHIFYQILSNKKPELLDMLLITNNPYDYAFISQGETTVASIDDAEELMATDNAFDVLGFTSEEKNSMYKLTGAIMHFGNMKFKLKQREEQAEPDGTEEADKSAYLMGLNSADLLKGLCHPRVKVGNEYVTKGQNVQQVIYATGALAKAVYERMFNWMVTRINATLETKQPRQYFIGVLDIAGFEIFDFNSFEQLCINFTNEKLQQFFNHHMFVLEQEEYKKEGIEWTFIDFGMDLQACIDLIEKPMGIMSILEEECMFPKATDMTFKAKLFDNHLGKSANFQKPRNIKGKPEAHFSLIHYAGIVDYNIIGWLQKNKDPLNETVVGLYQKSSLKLLSTLFANYAGADAPIEKGKGKAKKGSSFQTVSALHRENLNKLMTNLRSTHPHFVRCIIPNETKSPGVMDNPLVMHQLRCNGVLEGIRICRKGFPNRILYGDFRQRYRILNPAAIPEGQFIDSRKGAEKLLSSLDIDHNQYKFGHTKVFFKAGLLGLLEEMRDERLSRIITRIQAQSRGVLARMEYKKLLERR chain 2: not shown
20 s⁻¹	152 s⁻¹	human β-cardiac myosin sS1-eGFP (MYH7 1-808) H251N with essential light chain (complex) chain 1: MGDSEMAVFGAAAPYLRKSEKERLEAQTRPFDLKKDVFVPDDKQEFVKAKIVSREGGKVTAETEYGKTVTVKEDQVMQQNPPKFDKIEDMAMLTFLHEPAVLYNLKDRYGSWMIYTYSGLFCVTVNPYKWLPVYTPEVVAAYRGKKRSEAPPHIFSISDNAYQYMLTDRENQSILITGESGAGKTVNTKRVIQYFAVIAAIGDRSKKDQSPGKGTLEDQIIQANPALEAFGNAKTVRNDNSSRFGKFIRINFGATGKLASADIETYLLEKSRVIFQLKAERDYHIFYQILSNKKPELLDMLLITNNPYDYAFISQGETTVASIDDAEELMATDNAFDVLGFTSEEKNSMYKLTGAIMHFGNMKFKLKQREEQAEPDGTEEADKSAYLMGLNSADLLKGLCHPRVKVGNEYVTKGQNVQQVIYATGALAKAVYERMFNWMVTRINATLETKQPRQYFIGVLDIAGFEIFDFNSFEQLCINFTNEKLQQFFNHHMFVLEQEEYKKEGIEWTFIDFGMDLQACIDLIEKPMGIMSILEEECMFPKATDMTFKAKLFDNHLGKSANFQKPRNIKGKPEAHFSLIHYAGIVDYNIIGWLQKNKDPLNETVVGLYQKSSLKLLSTLFANYAGADAPIEKGKGKAKKGSSFQTVSALHRENLNKLMTNLRSTHPHFVRCIIPNETKSPGVMDNPLVMHQLRCNGVLEGIRICRKGFPNRILYGDFRQRYRILNPAAIPEGQFIDSRKGAEKLLSSLDIDHNQYKFGHTKVFFKAGLLGLLEEMRDERLSRIITRIQAQSRGVLARMEYKKLLERR chain 2: not shown
–	80 s⁻¹	human β-cardiac myosin sS1-eGFP (MYH7 1-808) S532P with essential light chain (complex) chain 1: MGDSEMAVFGAAAPYLRKSEKERLEAQTRPFDLKKDVFVPDDKQEFVKAKIVSREGGKVTAETEYGKTVTVKEDQVMQQNPPKFDKIEDMAMLTFLHEPAVLYNLKDRYGSWMIYTYSGLFCVTVNPYKWLPVYTPEVVAAYRGKKRSEAPPHIFSISDNAYQYMLTDRENQSILITGESGAGKTVNTKRVIQYFAVIAAIGDRSKKDQSPGKGTLEDQIIQANPALEAFGNAKTVRNDNSSRFGKFIRIHFGATGKLASADIETYLLEKSRVIFQLKAERDYHIFYQILSNKKPELLDMLLITNNPYDYAFISQGETTVASIDDAEELMATDNAFDVLGFTSEEKNSMYKLTGAIMHFGNMKFKLKQREEQAEPDGTEEADKSAYLMGLNSADLLKGLCHPRVKVGNEYVTKGQNVQQVIYATGALAKAVYERMFNWMVTRINATLETKQPRQYFIGVLDIAGFEIFDFNSFEQLCINFTNEKLQQFFNHHMFVLEQEEYKKEGIEWTFIDFGMDLQACIDLIEKPMGIMPILEEECMFPKATDMTFKAKLFDNHLGKSANFQKPRNIKGKPEAHFSLIHYAGIVDYNIIGWLQKNKDPLNETVVGLYQKSSLKLLSTLFANYAGADAPIEKGKGKAKKGSSFQTVSALHRENLNKLMTNLRSTHPHFVRCIIPNETKSPGVMDNPLVMHQLRCNGVLEGIRICRKGFPNRILYGDFRQRYRILNPAAIPEGQFIDSRKGAEKLLSSLDIDHNQYKFGHTKVFFKAGLLGLLEEMRDERLSRIITRIQAQSRGVLARMEYKKLLERR chain 2: not shown
–	104 s⁻¹	human β-cardiac myosin sS1-eGFP (MYH7 1-808) A223T with essential light chain (complex) chain 1: MGDSEMAVFGAAAPYLRKSEKERLEAQTRPFDLKKDVFVPDDKQEFVKAKIVSREGGKVTAETEYGKTVTVKEDQVMQQNPPKFDKIEDMAMLTFLHEPAVLYNLKDRYGSWMIYTYSGLFCVTVNPYKWLPVYTPEVVAAYRGKKRSEAPPHIFSISDNAYQYMLTDRENQSILITGESGAGKTVNTKRVIQYFAVIAAIGDRSKKDQSPGKGTLEDQIIQTNPALEAFGNAKTVRNDNSSRFGKFIRIHFGATGKLASADIETYLLEKSRVIFQLKAERDYHIFYQILSNKKPELLDMLLITNNPYDYAFISQGETTVASIDDAEELMATDNAFDVLGFTSEEKNSMYKLTGAIMHFGNMKFKLKQREEQAEPDGTEEADKSAYLMGLNSADLLKGLCHPRVKVGNEYVTKGQNVQQVIYATGALAKAVYERMFNWMVTRINATLETKQPRQYFIGVLDIAGFEIFDFNSFEQLCINFTNEKLQQFFNHHMFVLEQEEYKKEGIEWTFIDFGMDLQACIDLIEKPMGIMSILEEECMFPKATDMTFKAKLFDNHLGKSANFQKPRNIKGKPEAHFSLIHYAGIVDYNIIGWLQKNKDPLNETVVGLYQKSSLKLLSTLFANYAGADAPIEKGKGKAKKGSSFQTVSALHRENLNKLMTNLRSTHPHFVRCIIPNETKSPGVMDNPLVMHQLRCNGVLEGIRICRKGFPNRILYGDFRQRYRILNPAAIPEGQFIDSRKGAEKLLSSLDIDHNQYKFGHTKVFFKAGLLGLLEEMRDERLSRIITRIQAQSRGVLARMEYKKLLERR chain 2: not shown
24 s⁻¹	140 s⁻¹	human β-cardiac myosin sS1-eGFP (MYH7 1-808) D239N with essential light chain (complex) chain 1: MGDSEMAVFGAAAPYLRKSEKERLEAQTRPFDLKKDVFVPDDKQEFVKAKIVSREGGKVTAETEYGKTVTVKEDQVMQQNPPKFDKIEDMAMLTFLHEPAVLYNLKDRYGSWMIYTYSGLFCVTVNPYKWLPVYTPEVVAAYRGKKRSEAPPHIFSISDNAYQYMLTDRENQSILITGESGAGKTVNTKRVIQYFAVIAAIGDRSKKDQSPGKGTLEDQIIQANPALEAFGNAKTVRNNNSSRFGKFIRIHFGATGKLASADIETYLLEKSRVIFQLKAERDYHIFYQILSNKKPELLDMLLITNNPYDYAFISQGETTVASIDDAEELMATDNAFDVLGFTSEEKNSMYKLTGAIMHFGNMKFKLKQREEQAEPDGTEEADKSAYLMGLNSADLLKGLCHPRVKVGNEYVTKGQNVQQVIYATGALAKAVYERMFNWMVTRINATLETKQPRQYFIGVLDIAGFEIFDFNSFEQLCINFTNEKLQQFFNHHMFVLEQEEYKKEGIEWTFIDFGMDLQACIDLIEKPMGIMSILEEECMFPKATDMTFKAKLFDNHLGKSANFQKPRNIKGKPEAHFSLIHYAGIVDYNIIGWLQKNKDPLNETVVGLYQKSSLKLLSTLFANYAGADAPIEKGKGKAKKGSSFQTVSALHRENLNKLMTNLRSTHPHFVRCIIPNETKSPGVMDNPLVMHQLRCNGVLEGIRICRKGFPNRILYGDFRQRYRILNPAAIPEGQFIDSRKGAEKLLSSLDIDHNQYKFGHTKVFFKAGLLGLLEEMRDERLSRIITRIQAQSRGVLARMEYKKLLERR chain 2: not shown
